Starred links: 1 amine or outer side, 2 acyl side, 3 side chain; linkers in the order of their positions; H or OH if unused. Non-standard residues stand in square brackets, D forms with d. No end group written: not given here. (R)β21Nal = (R)-β2-1-naphthylalanine, O=C([C@@H](CN[*:1])Cc1cccc2ccccc12)[*:2]; (R)β31Nal = (R)-β3-1-naphthylalanine, O=C(C[C@@H](Cc1cccc2ccccc12)N[*:1])[*:2]; Dmt = Cc1cc(O)cc(C)c1C[C@H](N)C(=O)O
Tests used:
[1] = biological target: T1, human kappa opioid receptor (human, UniProt P41145 1-380); assay: radioligand binding; displacement of [3H]U-69593 from commercial membranes of CHO cells transfected with the human recombinant kappa opioid receptor; Ki, mean ± SEM, n ≥ 3; conditions: one partner purified
T1 construct: kappa opioid receptor, human recombinant, in membranes of transfected CHO cells; also called kappa receptor; source: commercial membranes of CHO cells transfected with human recombinant opioid receptors

[2] = biological target: T2, human delta opioid receptor (human, UniProt P41143 1-372); assay: radioligand binding; displacement of [3H]deltorphin-2 from commercial membranes of CHO cells transfected with the human recombinant delta opioid receptor; Ki, mean ± SEM, n ≥ 3; conditions: one partner purified
T2 construct: delta opioid receptor, human recombinant, in membranes of transfected CHO cells; also called delta receptor; source: commercial membranes of CHO cells transfected with human recombinant opioid receptors

human mu opioid receptor [3] = biological target: T3, human mu opioid receptor (human, UniProt P35372 1-400); assay: cell-based or functional assay
human mu opioid receptor [4] = biological target: T3, human mu opioid receptor; assay: radioligand binding; displacement of [3H]DAMGO from commercial membranes of CHO cells transfected with the human recombinant mu opioid receptor; Ki, mean ± SEM, n ≥ 3; conditions: one partner purified

T1 sequence (P41145 whole entry): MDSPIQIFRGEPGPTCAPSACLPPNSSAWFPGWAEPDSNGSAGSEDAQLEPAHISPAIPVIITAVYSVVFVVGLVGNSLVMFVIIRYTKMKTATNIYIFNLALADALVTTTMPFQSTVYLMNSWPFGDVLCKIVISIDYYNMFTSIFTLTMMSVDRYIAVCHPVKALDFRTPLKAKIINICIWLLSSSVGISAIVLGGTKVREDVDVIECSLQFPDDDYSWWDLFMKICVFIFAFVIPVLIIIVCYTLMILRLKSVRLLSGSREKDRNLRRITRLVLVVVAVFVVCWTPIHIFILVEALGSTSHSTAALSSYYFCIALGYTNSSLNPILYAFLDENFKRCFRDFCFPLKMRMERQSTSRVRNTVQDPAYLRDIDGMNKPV
T2 sequence (P41143 whole entry, stated change not applied): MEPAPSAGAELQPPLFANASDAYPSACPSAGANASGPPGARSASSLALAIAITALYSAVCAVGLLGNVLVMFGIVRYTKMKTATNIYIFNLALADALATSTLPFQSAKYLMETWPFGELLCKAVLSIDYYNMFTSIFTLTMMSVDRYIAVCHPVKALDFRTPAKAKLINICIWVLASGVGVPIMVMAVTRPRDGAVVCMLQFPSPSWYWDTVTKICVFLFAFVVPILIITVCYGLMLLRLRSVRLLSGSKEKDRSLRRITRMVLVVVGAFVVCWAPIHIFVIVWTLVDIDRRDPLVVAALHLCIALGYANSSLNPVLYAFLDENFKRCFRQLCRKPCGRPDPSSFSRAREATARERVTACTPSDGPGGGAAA
T3 sequence (P35372 whole entry): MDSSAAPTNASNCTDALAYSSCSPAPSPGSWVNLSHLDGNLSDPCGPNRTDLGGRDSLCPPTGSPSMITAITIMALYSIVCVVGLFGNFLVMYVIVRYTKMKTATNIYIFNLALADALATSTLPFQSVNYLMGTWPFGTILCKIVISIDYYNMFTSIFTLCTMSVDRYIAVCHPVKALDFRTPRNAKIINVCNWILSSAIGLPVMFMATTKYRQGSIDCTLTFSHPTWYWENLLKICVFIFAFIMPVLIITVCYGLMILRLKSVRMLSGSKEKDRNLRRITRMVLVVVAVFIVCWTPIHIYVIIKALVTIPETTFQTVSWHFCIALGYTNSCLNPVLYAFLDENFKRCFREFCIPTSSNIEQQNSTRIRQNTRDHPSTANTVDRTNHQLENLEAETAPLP

Binder	Ki [1]	Ki [2]	calcium mobilization, CHO cells with human mu receptor and Gαqi5: α (Emax ratio to the standard agonist) (human mu opioid receptor [3])	Ki (human mu opioid receptor [4])
[Dmt]P[(R)β31Nal]F-NH2 (N-terminus assumed; SMILES Cc1cc(O)cc(C)c1C[C@H](N)C(=O)N1CCC[C@H]1C(=O)N[C@@H](CC(=O)N[C@@H](Cc1ccccc1)C(N)=O)Cc1cccc2ccccc12) [EM-2 analog 13 (Dmt-Pro-(R)-β3-1-Nal-Phe-NH2)]	915 nM	722 nM	0.77	2.75 nM
YP[(R)β21Nal]F-NH2 (N-terminus assumed; SMILES NC(=O)[C@H](Cc1ccccc1)NC(=O)[C@@H](CNC(=O)[C@@H]1CCCN1C(=O)[C@@H](N)Cc1ccc(O)cc1)Cc1cccc2ccccc12) [EM-2 analog 10 (Tyr-Pro-(R)-β2-1-Nal-Phe-NH2)]	> 1000 nM	> 1000 nM	0.25	34.9 nM
[Dmt]P[(R)β21Nal]F-NH2 (N-terminus assumed; SMILES Cc1cc(O)cc(C)c1C[C@H](N)C(=O)N1CCC[C@H]1C(=O)NC[C@@H](Cc1cccc2ccccc12)C(=O)N[C@@H](Cc1ccccc1)C(N)=O) [EM-2 analog 11 (Dmt-Pro-(R)-β2-1-Nal-Phe-NH2)]	> 1000 nM	675 nM	0.57	9.54 nM
YP[(R)β31Nal]F-NH2 (N-terminus assumed; SMILES NC(=O)[C@H](Cc1ccccc1)NC(=O)C[C@@H](Cc1cccc2ccccc12)NC(=O)[C@@H]1CCCN1C(=O)[C@@H](N)Cc1ccc(O)cc1) [EM-2 analog 12 (Tyr-Pro-(R)-β3-1-Nal-Phe-NH2)]	> 1000 nM	> 1000 nM	0.97	32.1 nM
